# Assay: yeast display, Sf9 membrane polyspecificity reagent, FACS + sequencing; frameworks hold sequencing errors
# Method in brief: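 Genes from sorted yeast were amplified by colony PCR, read by MiSeq 2 × 250 sequencing and filtered on CDR length. These cells carried a synthetic nanobody library in Saccharomyces cerevisiae BJ5465 and were sorted by FACS into low and high (top ~1%) gates on anti-HA and streptavidin fluorescence. Polyreactivity is labelled according to the gate of origin.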
row,Sequence,polyreactivity (PSR sort gate)
1,QVQLVESGGGIVQAGGSLRLSCAASGNAMGWYRQAPGKERELVASINRSGGRTYYADSVKGRFTISRDNAKNTVYLQMNSLKPEDTAVYYCAARPHYDSDYWGQGTQVTVSS,low polyreactivity
2,QVQLVESGGGIVQAGGSLRLSCAASGNIFFWYDMGWYRQAPGKERELVATITSSGGSTYYADSVKGRFTISRDNAKNTVYLQMNSLKPEDTAVYYCNALPYYRDDYWGQGTQVTVSS,low polyreactivity
3,QVQLVESGGGIVQAGGSLRLSCAASGNIFHKNAMGWYRQAPGKERELVASISWSGGSTYYADSVKGRFTISRDNAKNTVYLQMNSLKPEDTAVYYCATDAFGYPGNRYALNDYWGQGTQVTVSS,low polyreactivity
4,QVQLVESGGGIVQAGGSLRLSCAASGNIFSYKAMGWYRQAPRTERELVDAISRSGGSTYYADSVKGRFTISRDNAKNTVYLQMNSLKPEDTAVYYCAADWRGRKYDYWGQGTQVTVSS,high polyreactivity
5,QVQLVESGGGIVQAGGSLRLSCAASGRIFAYYAMGWYRQAPGKERELVAAISTSGGSTYYADSVKGRFTISRDNAKNTVYLQMNSLKPEDTAVYYCAAEFGGGRSTNFDYWGQGTQVTVSS,low polyreactivity
6,QVQLVESGGGIVQAGGSLRLSCAASGRIFEWYAMGWYRQAPGKERELVAAITKTAGSTYYADSVKGRFTISRDNAKNTVYLQMNSLKPEDTAVYYCNAKTYHSRRKVLRFDYWGQGTQVTVSS,low polyreactivity
7,QVQLVESGGGIVQAGGSLRLSCAASGRIFGIYERGWLRQAPGKEREMVAGITRGDRTYADSVKGRFTISRDNAKNTVYLQMNSLKPVDTAVYYCNADVYPYKLALPAGMGYWGQGTQVTVSS,high polyreactivity
8,QVQLVESGGGIVQAGGSLRLSCAASGRIFYVNAMGWYRQSPGKERELVAAISRSGSSTYYADSVKGRFTISRDNAKNTVYLQMNSLKPEDTAVYYCAARYYGRSQHHFDYWGQGTQVTVSS,high polyreactivity
9,QVQLVESGGGIVQAGGSLRLSCAASGRIVRNYAMGWYRQAPGKERELVAGITRGGRTNYAHSVKGRFTISRDNAKNTVYLQMNSLKPEDTAVYYCNKVSSFGYYYWGQGTQVTVSS,high polyreactivity
10,QVQLVESGGGIVQAGGSLRLSCAASGRTFEQNVMRWYRQAPGKERELVAAITTGGSTNYADSVKGRFTISRDNAKNTVYLQMNSLKPEDTAVYYCAADRYLGGDYDYWGQGTQVTVSS,low polyreactivity
11,QVQLVESGGGIVQAGGSLRLSCAASGRTFPGYAMGWSRQAPGKERELVATITFSDGSTYYADSVKGRFTISRDNAKNTVYLQMNSLKPEDTAVYYCNARRSYFLRYGVNYWGQGTQVTVSS,low polyreactivity
12,QVQLVESGGGIVQAGGSLRLSCAASGRTFPRYAMGWYRQAPGKERELVAAISVRAGITYYADSVKGRFTISRDNAKNTVYLQMNSLKPEDTAVYYCAKDHWTTSYDEGDYWGQGTQVTVSS,low polyreactivity
13,QVQLVESGGGIVQAGGSLRLSCAASGRTFQANAMGWYRQAPGKERELVAVISSRGTRTYYADSVKGRFTISRDNAKNTVYLQMNSLKPEDTAVYYCAARVPSVGNQSGYDYWGQGTQVTVSS,high polyreactivity
14,QVQLVESGGGIVQAGGSLRLSCAASGRTFVLNALGWYRQAPGKERELVAAITLGGGSTYADSVKGRFTISRDNAQNTVYLQMNSLKPEDTAVYYCAADFHYPDFEYWGQGTQVTVSS,low polyreactivity
15,QVQLVESGGGIVQAGGSLRLSCAASGRTFVSYAKGWYRQAPGKERELVAAISSSGGRTYYADSVKGRFTISRDNAKNTVYLQMNSLKPEDTAVYYCNAVRFISARYDYWGQGTQVTVSS,high polyreactivity
16,QVQLVESGGGIVQAGGSLRLSCAASGRTLDKYTMGWYRQAPGKERELVASITSGGSTNYADSVKGRFTISRDNAKNTVYLQMNSLKPEDTAVYYCNKRRRVSKLGQGYDYWGQGTQVTVSS,low polyreactivity
17,QVQLVESGGGIVQAGGSLRLSCAASGRTTSVYAIGWYRQAPGKERELVAAINRSDGGTYYADSVKGRFTISRDNAKNTVYLQMNRLQPEDTAVYYCNAVVLYGWYGRRYSSRLDYWGQGTQVTVSS,high polyreactivity
18,QVQLVESGGGIVQAGGSLRLSCAASGSIFGPYAMGWYRQAPGKERELVAAITWTGGRTYYADSVKGRFTISRDNAKNTVYLQMNSLKPEDTAVYYCAADYSPSTWYLYYTLYYYWGQGTQVTVSS,low polyreactivity
19,QVQLVESGGGIVQAGGSLRLSCAASGSIFHGYAMGWYRQAPGKERELVASITWNGGSTYYADSVKGRFTISRDNAKNTVYLQMNSLKPEDTAVYYCATSKWRGRGRTYDYWGQGTQVTVSS,high polyreactivity
20,QVQLVESGGGIVQAGGSLRLSCAASGSIFITYAMGWYRPAPGKERELVAAIRDSGDRTYYADSVKGRFTISRDNAKNTVYLQMNSLKPEDTAVYYCAARIWTGRGRKLGYGYVYWGQGTQVTVSS,low polyreactivity
21,QVQLVESGGGIVQAGGSLRLSCAASGSIFLGYTMGLYRQAPGKERELVAAINSSGGSTYYADSVKGRFTISRDNAKNTVYLQMNSLKPEDTAVYYCADANSILLFDSWGQGTQVTVSS,low polyreactivity

row,Sequence,polyreactivity (PSR sort gate)
1,QVQLVESGGGIVQAGGSLRLSCAASGSIYGYAMGWYRQAPGKERELVAAISGRGGRTYYADSVKGRFTISRDNAKNTVYLQMNSLKPEDTAVYYCNVQWRYPYHYTVDYWGQGTQVTVSS,high polyreactivity
2,QVQLVESGGGIVQAGGSLRLSCAASGSNFTAYDMGWYRPAPGKDRELVAALNVSAGTTYYADSVKGRFTISRDHAKNTVYLQMNSLKPEDTAVYYCATYRSPTPYTRENIYAYWGQGTLVTVSS,low polyreactivity
3,QVQLVESGGGIVQAGGSLRLSCAASGSNFYANPMGWYRQAPGKERELVAAITRSGAGTYYADSVKGRFTISRDNAKNTVYLQMNSLKPEDTAVYDCAKRTKTPTGYDWGGYDYWGQGTQVTVSS,high polyreactivity
4,QVQLVESGGGIVQAGGSLRLSCAASGSTFDSYAMGWYGQAPGKERELVATISWTGSSTYYADSVKGRFTISRDNAKNTVYLQMNSLKPEDTAVYYCATDQYYEYDYWGQGTQVTVSS,low polyreactivity
5,QVQLVESGGGIVQAGGSLRLSCAASGSTFDSYAMGWYRQAPGKERELVATISWTGSSTYYADSVKGRFTISRDNAKNTVYLQMNSLKPADTAVYYCATDQYYEYDYWGQGTQVTVSS,low polyreactivity
6,QVQLVESGGGIVQAGGSLRLSCAASGSTFEANAMGWYRQARGKERELVAAISSGDRTNYADSVKGRFTISRDNAKNTVYLQLNSLKPEDNAVYFCAAPTDSYYEFDYWGQGTQGTVSS,low polyreactivity
7,QVQLVESGGGIVQAGGSLRLSCAASGSTFGTYAMGWYRQAPGKEMELVAAISNSGGSTYYADSVKGRFTISRDNAKNTVYLLMNSLKQEDTAVYYCNTDGLVRNGPFYSWGQGTQVTVSS,low polyreactivity
8,QVQLVESGGGIVQAGGSLRLSCAASGSTFPHNAMGWYRQAPGKERQLVAALSVGGGSTHYADSVKGRFTISRDNAKNTVYLQMNSLKPEDTAVYYCAKDYAYQYSFVTYDYWGQGTQVTVSS,low polyreactivity
9,QVQLVESGGGIVQAGGSLRLSCAASGSTFTWYAMGLYRQAPGKERELVADISYGGGSTYYADSVKGRFTISRDNSKNTVYLQMNSLKPEDTAVYYCTALGAKGYVKGFDYWGQGTQVTVSS,low polyreactivity
10,QVQLVESGGGIVQAGGSLRLSCAASGSTLVKYAMGWYRQAPGKERELVAAISWSGGRTYYADSVKGRFTISRDNAKNTVYLQMNSLKPEDTAVYYCAARRKAVRYDYWGQGTQVTVSS,high polyreactivity
11,QVQLVESGGGIVQAGGSLRLSCAASGSTSGSYGMGWYRQAPGKERELVAAIRWSGGRTYYADSVKGRFTISRDKAKNTVYLQMNSLKPEDTAVYFCAKFRYTVSGYNYWGQRTQVTVSS,high polyreactivity
12,QVQLVESGGGIVQAGGSLRLSCAASGYIFKRYAMGWYRQAPWKERELVAAITGRGGSTYFADSVKGRFKISRDNAKNTVYLQMNSLKPEDTAVYYCAADGYVKGDYWGQGTQVTVSS,high polyreactivity
13,QVQLVESGGGIVQAGGSLRLSCAASGYSFFINAMGWSRQAPGKERELVAAIDLRGGSTYYADSVKGRFTISRDNAKNTVYLQMNSLKPEDTAVYYCNARARRYGGRYYYWGQGTQVTVSS,high polyreactivity
14,QVQLVESGGGIVQAGGSLRLSCAASGYTIDSYGMGWYRQAPGKERELVAAIDWSGGSTYYADSVKGRFTISRDNAKNTVYLQMNSLKPEDTAVYYCAARRGLRLFAYRHGYWGQGTQVTVSS,low polyreactivity
15,QVQLVESGGGIVQAGGSLRLSCAASYYDMGWYRQAHGKERELVASISSGGSTNYADSVKGRFTISRDNAKNTVYLQMNSLKPEVTAVYYCAAVVADGVWVKIADEYWGQGTQVTVSS,low polyreactivity
16,QVQLVESGGGIVQAGGSLRLSCASSGLIFKFYAMGWYRQAPGKERELVASIRRSGDNTYYADSVKRRFTISRDNAKNTVYLQMKSLKPEDTAVYYCAAELLYDYVEYYYWGQGTQVTVAS,high polyreactivity
17,QVQLVESGGGIVQAGGSLRLSCDGSGSTFTYYAMGWYRQEPGKEWEFVAAISRRGGSTYYADSVKGRFTISRDNAKNTVYFQLNSLKPEDTAVSDCNVVIYSYGINGRYDYWGQGTQVTVSS,high polyreactivity
18,QVQLVESGGGIVQAGGSLRLSCTASGFTFTYYAMGSYRQAPGKERELVAAISWSGGSTYYADSVKGRFTISRDNAKNTVYLQMNSLKPEDTAVYYCNKVGRAIGPYDYWGQGTQVTVSS,high polyreactivity
19,QVQLVESGGGIVQAGGSLRLSSAASGFTFYYYAIGWYRQAPGKERELVAAISSGGSTYYADSVKGRFTISRDNAKNTVYLQMNSLKPEDTAVYYCAADSLYYRYDYWGQGTQVTVSS,low polyreactivity
20,QVQLVESGGGIVQAGGSLRLSSAASGGIFPYYVMGRYRQAPGKERELVAAINSGGTTYYADSVKGRFTISRDNAKNTVYLQMNSLKPEDTAVYYCAAEAYKHGVWDYDYWGQGTQVTVSS,low polyreactivity

# From the nanobody polyreactivity screen of Harvey et al. (2022)
